Source: PMC5426288, “Crystal structure of thermostable alkylsulfatase SdsAP from Pseudomonas sp. S9” (Bioscience Reports, 2017)

Experiments:
[1] = substrate: CCCCCCCCCCCCOS(=O)(=O)O; experiment: isothermal titration calorimetry, enzyme rate assay; assay type: biochemical, Pseudomonas sp.; conditions: 25 °C, 25 mM Tris/HCl pH 8.0, 200 mM NaCl, 25 nM enzyme
[2] = target: the molecule itself; experiment: crystal structure; SdsAP at 27.5 mg/ml, sitting drop vapor diffusion at 293 K, 0.1 M sodium acetate pH 4.5, 0.05 M magnesium acetate, 20% PEG 4000; two monomers in the asymmetric unit; 1.76 Å

B1: alkylsulfatase SdsAP from Pseudomonas sp. S9 (enzyme, UniProt F2WP51 42-674, looked up)
chain: AETAKPATDATKAANDALLKELPFDDKTSFDLAHKGFIAPLPAEPIKGEKGNMIWDPSKYGFIKEGEAAPDTTNPSLWRQSQLINISGLFEVTDGIYQVRNYDLSNMTIVEGKDGITIFDPLISQETAKAALDLYYKHRPKKPVVAVIYTHSHVDHYGGVRGVVDEADVKAGKVKIYAPLGFLEHAVAENVMAGTAMSRRASYMYGNLLPPDAKGQLGAGLGTTTSAGTVTLIPPTDIIKETGETHVIDGLTYEFMYAPGSEAPAEMLYYIKEKKALNAAEDSTHTLHNTYSLRGAKIRDPLAWSKYLNEALKLWGDDVQVMYAMHHWPVWGNKEVREQLSLQRDMYRYINDETLRLANKGYTMTEIAEQVKLPKKIATKFSNRGYYGSLNHNVKATYVLYLGWFIGNPATLWELPPADKAKRYVEMMGGADAVLKKAKEYYDKGDFRWVAEVVNHVVFAEPNNQAAKNMQADALEQLGYQAESGPWRNFYLTGAQELRNGVQQLPTPDTASPDTVKAMDLDLFFDFLAMRLKGPDVADKHITLNLDFTDLKQKYTLEMVNGVLNHTEGMQAKNADATVTLTRETLNNVMLKQTTLKDAESSGDIKIEGDKGKLEELMSYMDNFDFWFNIVTP
notes: SdsAP, type III alkylsulfatase of Pseudomonas sp; S9 (F2WP51); N-terminal signal peptide of 41 amino acids truncated; domains in the structure: 42-401 metallo-beta-lactamase like, 402-543 dimerization, 544-674 SCP-2-like; that this removes the His tag is inferred; source: E. coli BL21 (DE3), purified (IMAC, thrombin digestion, Mono Q, Superdex 200)
Q: What does the source list for B1?
A: Km [1]: 74.2 ± 10 µM; kcat [1]: 4.88 ± 0.17 s⁻¹; stoichiometry N [2]: 2
